The target in assay [1] is GCGR-SmBiT (glucagon receptor) (UniProt P47871). The experiment in a line: split reporter (BiFC, NanoBiT); HEK293T cells co-transfected with receptor-SmBiT and LgBiT-mini-G or LgBiT-β-arrestin-2; in HBSS with furimazine, 37 °C; 5 min baseline, then peptide agonist added and luminescence recorded for 30 min; K@[max] from one-phase (mini-Gs) or bi-exponential (β-arrestin-2) fits at a single maximal agonist concentration.

In assay [2] the target is GLP-1R-SmBiT (glucagon-like peptide-1 receptor) (UniProt P43220). The description is as above.
Chain of GLP-1R-SmBiT (glucagon-like peptide-1 receptor) (P43220 24-463): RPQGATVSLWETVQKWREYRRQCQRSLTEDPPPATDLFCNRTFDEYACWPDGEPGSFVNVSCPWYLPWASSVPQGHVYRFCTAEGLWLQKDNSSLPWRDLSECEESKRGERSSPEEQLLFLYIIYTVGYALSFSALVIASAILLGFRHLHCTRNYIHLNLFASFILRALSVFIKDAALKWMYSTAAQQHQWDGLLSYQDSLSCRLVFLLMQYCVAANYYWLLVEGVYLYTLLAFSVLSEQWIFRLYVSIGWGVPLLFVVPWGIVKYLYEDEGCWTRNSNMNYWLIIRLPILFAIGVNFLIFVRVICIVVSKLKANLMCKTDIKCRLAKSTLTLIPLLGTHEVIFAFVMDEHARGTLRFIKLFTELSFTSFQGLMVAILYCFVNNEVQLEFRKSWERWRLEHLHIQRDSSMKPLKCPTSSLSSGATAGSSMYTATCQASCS
In assay [3] the target is GCGR-SmBiT (glucagon receptor) (UniProt P47871).
Assay [4] deals with T1, GCGR (Homo sapiens, UniProt P47871). The experiment in a line: NanoBiT mini-Gs recruitment to GCGR-SmBiT in HEK293T cells. It counts as cell-based. Also noted: expressed in transfected cells; host or cells: HEK293T.
T1 sequence (P47871 26-477): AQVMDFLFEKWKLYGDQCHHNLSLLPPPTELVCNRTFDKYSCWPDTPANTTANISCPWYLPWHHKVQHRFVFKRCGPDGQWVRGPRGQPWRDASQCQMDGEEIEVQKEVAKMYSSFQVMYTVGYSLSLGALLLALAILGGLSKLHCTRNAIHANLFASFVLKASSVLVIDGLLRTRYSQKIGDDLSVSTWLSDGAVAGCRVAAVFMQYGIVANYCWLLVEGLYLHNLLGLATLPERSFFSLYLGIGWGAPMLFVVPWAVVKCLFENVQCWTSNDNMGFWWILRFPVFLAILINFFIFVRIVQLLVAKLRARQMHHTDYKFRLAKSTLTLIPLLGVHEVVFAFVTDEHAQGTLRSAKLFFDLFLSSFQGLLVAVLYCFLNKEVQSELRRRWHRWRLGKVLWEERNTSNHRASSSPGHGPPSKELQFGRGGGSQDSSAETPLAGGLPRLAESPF
Assay [5] deals with T1, GCGR. The experiment in a line: NanoBiT β-arrestin-2 recruitment to GCGR-SmBiT in HEK293T cells. The class given is cell-based. Further details: expressed in transfected cells; host or cells: HEK293T.
The next assay relates to mouse pancreatic islets. In words: Fluorescent TMR-ligand uptake in mouse pancreatic islets. The class given is cell-based. The settings on record: 100 nM, 30 min, confocal imaging, n = 2. As to the method: Mouse pancreatic islets were isolated and left to recover overnight before being immobilised with Matrigel onto glass-bottom Mattek dishes and stimulated with 100 nM of the indicated TMR-modified agonist for 30 min. Z stacks were recorded for the whole islet volume on a Zeiss LSM780 inverted confocal microscope with a 20× air objective and 1 μm of separation between optical slices.

Another assay deals with Huh7-GCGR cells. In words: Fluorescent TMR-ligand internalisation in Huh7-GCGR cells (high content imaging). The note with it: 100 nM, 30 min, n = 4. The class given is cell-based, human. As to the method: Huh7-GCGR cells were seeded in black clear-bottom plates coated with 0.1% poly-D-lysine and assayed 24 h later. Then 100 nM of fluorescent TMR-conjugated agonist or vehicle was applied for 30 min. The cells were then washed with cold HBSS and incubated for 5 min in cold acetic acid +150 mM of NaCl buffer at a pH of 2.9 to strip surface ligands. After a final wash, the cells were resuspended in HBSS and the fluorescent ligand uptake was measured and quantified by high content imaging as described in Section 2.9.

Assay [6] concerns the target GLP-1R-SmBiT (glucagon-like peptide-1 receptor) (UniProt P43220).

Where a SMILES comes first, the peptide text is derived from it. [ ]: non-standard residue; d: D form. Aib = CC(C)(N)C(=O)O

What is called Emax is the maximal effect, on the per cent scale that the assay sets.

Chain of GCGR-SmBiT (glucagon receptor) (P47871 26-477): as above
Chain of GCG-H3 (peptide) (peptide): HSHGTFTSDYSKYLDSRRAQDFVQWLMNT

In assay [1], LgBiT-mini-Gs (domain or fragment) came in with a K@[max] with GCG (association rate constant at maximal agonist stimulation) of 0.17 min⁻¹, a K@[max] with GCG-AIB2 (association rate constant at maximal agonist stimulation) of 0.11 min⁻¹, a K@[max] with GCG-AIB2H3 (association rate constant at maximal agonist stimulation) of 0.13 min⁻¹ and a K@[max] with GCG-H3 (association rate constant at maximal agonist stimulation) of 0.13 min⁻¹. For the same compound, in assay [1], the K@[max] with SRB103H (association rate constant at maximal agonist stimulation) worked out at 0.14 min⁻¹ and the K@[max] with SRB103Q (association rate constant at maximal agonist stimulation) amounted to 0.13 min⁻¹. In addition, in assay [2], the K@[max] with GLP-1-AIB2 (association rate constant at maximal agonist stimulation) stood at 0.21 min⁻¹, the K@[max] with SRB103H (association rate constant at maximal agonist stimulation) is 0.93 min⁻¹ and the K@[max] with SRB103Q (association rate constant at maximal agonist stimulation) amounted to 0.7 min⁻¹.

In the case of GCG-H3 (peptide), in assay [3], the Emax of mini-Gs recruitment to GCGR-SmBiT (NanoBiT, HEK293T, AUC over 30 min) was found to be 66 % max; the Emax of β-arrestin-2 recruitment to GCGR-SmBiT (NanoBiT, HEK293T, AUC over 30 min) is 54 % max; the pEC50 of mini-Gs recruitment to GCGR-SmBiT (NanoBiT, HEK293T, AUC over 30 min) is 6.8 pEC50 (M); the pEC50 of β-arrestin-2 recruitment to GCGR-SmBiT (NanoBiT, HEK293T, AUC over 30 min) was 6.3 pEC50 (M).

Take `CSCC[C@H](NC(=O)[C@H](CC(C)C)NC(=O)[C@H](Cc1c[nH]c2ccccc12)NC(=O)[C@H](CCC(N)=O)NC(=O)[C@@H](NC(=O)[C@H](Cc1ccccc1)NC(=O)[C@H](CC(=O)O)NC(=O)[C@H](CCC(N)=O)NC(=O)[C@H](C)NC(=O)[C@H](CCCNC(=N)N)NC(=O)[C@H](CCCNC(=N)N)NC(=O)[C@H](CO)NC(=O)[C@H](CC(=O)O)NC(=O)[C@H](CC(C)C)NC(=O)[C@H](Cc1ccc(O)cc1)NC(=O)[C@H](CCCCN)NC(=O)[C@H](CO)NC(=O)[C@H](Cc1ccc(O)cc1)NC(=O)[C@H](CC(=O)O)NC(=O)[C@H](CO)NC(=O)[C@@H](NC(=O)[C@H](Cc1ccccc1)NC(=O)[C@@H](NC(=O)CNC(=O)[C@H](Cc1c[nH]cn1)NC(=O)C(C)(C)NC(=O)[C@@H](N)Cc1c[nH]cn1)[C@@H](C)O)[C@@H](C)O)C(C)C)C(=O)N[C@@H](CC(N)=O)C(=O)N[C@H](C(=O)O)[C@@H](C)O` [GCG-AIB2H3] (H-H[Aib]HGTFTSDYSKYLDSRRAQDFVQWLMNT-OH): the Emax on GCGR [4] (HEK-293T, read-out: GCGR Mini-Gs Emax) amounted to 74 ± 5%; on GCGR [5] (HEK-293T, read-out: GCGR β-arrestin-2 Emax) it was 53 ± 2%. The EC50 is 0.1 µM on GCGR [4] (read-out: GCGR Mini-Gs pEC50 (converted)) and 0.251 µM at GCGR [5] (read-out: GCGR β-arrestin-2 pEC50 (converted)).

Take Glucagon-AIB2 (GCG-AIB2) (peptide): in assay [3], the Emax of mini-Gs recruitment to GCGR-SmBiT (NanoBiT, HEK293T, AUC over 30 min) amounted to 54 % max; the Emax of β-arrestin-2 recruitment to GCGR-SmBiT (NanoBiT, HEK293T, AUC over 30 min) amounted to 25 % max; the pEC50 of mini-Gs recruitment to GCGR-SmBiT (NanoBiT, HEK293T, AUC over 30 min) is 6.7 pEC50 (M); the pEC50 of β-arrestin-2 recruitment to GCGR-SmBiT (NanoBiT, HEK293T, AUC over 30 min) is 6.2 pEC50 (M).

Regarding “HXQGTFTSDYSKYLDAKRAQEFIEWLLAGHHHHHPS(K-TMR)W [SRB103Q-TMR, SRB103Q analogue conjugated to tetramethylrhodamine (TMR) close to the C-terminus]”, the “TMR agonist uptake in mouse islets” value in the assay with mouse pancreatic islets is on record as “somewhat reduced compared to SRB103H-TMR”.

As for “HXHGTFTSDYSKYLDAKRAQEFIEWLLAGHHHHHPS(K-TMR)W [SRB103H-TMR, SRB103H analogue conjugated to tetramethylrhodamine (TMR) close to the C-terminus]”, the “TMR-ligand uptake in Huh7-GCGR cells” value with Huh7-GCGR cells is reported as “greater uptake”.

As for GCG-AIB2H3 (peptide), in assay [3], the Emax of mini-Gs recruitment to GCGR-SmBiT (NanoBiT, HEK293T, AUC over 30 min) came out at 74 % max; the Emax of β-arrestin-2 recruitment to GCGR-SmBiT (NanoBiT, HEK293T, AUC over 30 min) was 53 % max; the pEC50 of mini-Gs recruitment to GCGR-SmBiT (NanoBiT, HEK293T, AUC over 30 min) was 7 pEC50 (M); the pEC50 of β-arrestin-2 recruitment to GCGR-SmBiT (NanoBiT, HEK293T, AUC over 30 min) was 6.6 pEC50 (M).

As for GLP-1-AIB2 (peptide), in assay [6], the Emax of mini-Gs recruitment to GLP-1R-SmBiT (NanoBiT, HEK293T, AUC over 30 min) was 96 % max; the Emax of β-arrestin-2 recruitment to GLP-1R-SmBiT (NanoBiT, HEK293T, AUC over 30 min) was 68 % max; the pEC50 of mini-Gs recruitment to GLP-1R-SmBiT (NanoBiT, HEK293T, AUC over 30 min) was 7.9 pEC50 (M); the pEC50 of β-arrestin-2 recruitment to GLP-1R-SmBiT (NanoBiT, HEK293T, AUC over 30 min) is 7.7 pEC50 (M).

These data come from paper PMC8163982, “Partial agonism improves the anti-hyperglycaemic efficacy of an oxyntomodulin-derived GLP-1R/GCGR co-agonist” (Molecular Metabolism, 2021).
